B1: Hammerhead Ribozyme (parent)
chain: ACCGGAUGUGCUUUCCGGUCUGAUGAGUCCGUGAGGACGAAACAG

Variants of: B1
Test: self-cleavage, relative activity (ratio to wild type); higher = more cleavage; co-transcriptional

Variant | self-cleavage
C29G A44C | 0.35
U13C A37G | 1.26
U13A A44U | 0.749
C16U G45A | 0.89
G27U U28G | 0.507
G22A A26C | 0.316
U7G G36A | 0.624
G22C U24A | 0.365
U9G U24C | 0.919
U19G C20G | 0.307
G33C | 0.997
A26U G35A | 0.52
C30G G36A | 0.553
G5A A40G | 0.379
C38G G39U | 0.402
A6G U13G | 0.778
G25A G39C | 0.305
A26U C29U | 0.598
A6C U14A | 0.536
U24G C30A | 0.626
G17C A42G | 0.335
C30U A40G | 0.333
G22C G27A | 0.359
U12A G18U | 0.888

Variant | self-cleavage
C2A C15U | 0.466
U13C U28A | 0.739
U12G G22C | 0.326
C15G U19G | 0.382
U7G A41C | 0.422
C29A C38A | 0.426
A1U G27U | 0.417
G4A G10A | 0.866
A1G C16U | 1.9
A6C U21C | 0.389
G5C G18U | 0.307
U12A A42C | 0.359
U28G A41G | 0.421
A6U G17U | 0.465
U14A A23U | 0.272
A6C U19C | 0.397
U7G U19C | 0.512
G5A U28C | 0.654
A34U A37G | 0.757
C20A C29A | 0.382
G18A G31A | 1.05
C20U U24C | 0.508
U21C G25U | 0.342
U19A A44C | 0.368

Variant | self-cleavage
U7G G8A | 1.29
C15U A26U | 0.752
G5C C29G | 0.344
G5C C29U | 0.504
U19G A44C | 0.361
U14A A44G | 1.06
U28G A34G | 0.793
U9A U14A | 1.07
C11G G17A | 0.511
G4A A42C | 0.335
G25A G27A | 0.306
U14G G45U | 0.776
G10A A37U | 0.921
G25U A41U | 0.337
C20A A44G | 0.848
C20A A34C | 0.34
C20A A34G | 0.341
G39C A41U | 0.305
C38U | 0.974
U9G U21G | 0.406
C20U C29G | 0.378
G10C U19C | 0.503
U24G G45C | 0.536
G10U U13A | 1.48

Variant | self-cleavage
G17C G39U | 0.33
G8C U32G | 1.23
G18U G27U | 0.53
U21C C43A | 0.216
G31U G33A | 0.708
U21A A37G | 0.365
C16G C20G | 0.317
U7G G35C | 0.979
A6U G25A | 0.308
C3A C15G | 0.346
U19G U24C | 0.255
U19G U24G | 0.323
U9A G18C | 0.39
U32A A42C | 0.315
C11A G36C | 0.911
A23G G35C | 0.279
A6G C43A | 0.217
A6U U13G | 0.616
C16A C30U | 1.32
U19A A26G | 0.313
G17A C30U | 0.622
U14G U32C | 0.653
C2G G5C | 0.309
C38A A42C | 0.326

Variant | self-cleavage
U24G G39C | 0.266
U12G A40G | 0.326
G18C C20G | 0.34
A1G G4U | 0.693
U13A A40C | 0.711
U9G U12G | 0.784
G36A G45C | 0.422
U7G C43A | 0.382
G17C U28A | 0.391
U9G G31A | 1.14
A1U G31U | 0.748
C2G U19A | 0.294
G18A A26G | 0.331
G17U U21C | 0.306
A1U U28C | 0.5
C3A U32G | 0.355
G17U G36U | 0.46
G22U C43A | 0.293
G33C G45A | 0.873
U9G G27U | 0.329
U14C G39C | 0.337
G10A C38U | 1.33
G5C U9C | 0.63
G8U U12C | 1.35

Variant | self-cleavage
C2A G22U | 0.34
C16G G27U | 0.304
C16G G27C | 0.35
U7A G35C | 0.707
G4C G27A | 0.476
G5U C20G | 0.333
G4U G22A | 0.297
G22A A41G | 0.365
G5A C20U | 1.01
G5C U14G | 0.929
C15G U21C | 0.275
G4U C16A | 1.07
C11G U28A | 0.809
A26G G45U | 0.338
A6G C38A | 0.454
U14C A40G | 0.273
C3U U9C | 1.08
U9A G35U | 0.435
G17C G45A | 0.366
G27C G45U | 0.564
C3A U12A | 0.836
G5A G27A | 0.776
C15G G27A | 0.464
A26G G39U | 0.343

Variant | self-cleavage
G27C A40U | 0.356
C30A U32C | 0.879
A6C C30G | 0.437
U7A G33U | 1.14
C38U G39A | 0.363
G4U G31U | 0.75
G5A C16U | 1.54
U7A C15U | 1.04
U9A G17C | 0.449
A37G A41U | 0.378
C11A G45U | 1.05
A26G C29U | 0.365
G31U C38U | 0.801
A23C A37G | 0.237
A40G C43A | 0.339
G10C G22A | 0.338
G10C G22C | 0.28
G25C G45A | 0.302
G8A G10U | 1.31
U12A A26U | 0.587
U12G G31C | 1.09
G8A A44U | 0.648
C2U A40C | 0.51
